Experiments:
[1] = biological target: T1, ID1 polypeptide with Strep-tag (Plasmodium falciparum); experiment: antigen-specific ELISA, OD450
T1 construct: Expressed in E. coli, predicted 17 kDa; also called ID1 antigen peptide
T1 chain: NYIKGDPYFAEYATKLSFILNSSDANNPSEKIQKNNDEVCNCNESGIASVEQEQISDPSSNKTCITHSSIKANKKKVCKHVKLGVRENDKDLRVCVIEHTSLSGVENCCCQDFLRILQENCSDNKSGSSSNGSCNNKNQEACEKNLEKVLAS

[2] = biological target: T2, DBL2X polypeptide with Strep-tag (Plasmodium falciparum); experiment: antigen-specific ELISA, OD450
T2 construct: Expressed in E. coli, predicted 40 kDa; also called DBL2X antigen peptide
T2 chain: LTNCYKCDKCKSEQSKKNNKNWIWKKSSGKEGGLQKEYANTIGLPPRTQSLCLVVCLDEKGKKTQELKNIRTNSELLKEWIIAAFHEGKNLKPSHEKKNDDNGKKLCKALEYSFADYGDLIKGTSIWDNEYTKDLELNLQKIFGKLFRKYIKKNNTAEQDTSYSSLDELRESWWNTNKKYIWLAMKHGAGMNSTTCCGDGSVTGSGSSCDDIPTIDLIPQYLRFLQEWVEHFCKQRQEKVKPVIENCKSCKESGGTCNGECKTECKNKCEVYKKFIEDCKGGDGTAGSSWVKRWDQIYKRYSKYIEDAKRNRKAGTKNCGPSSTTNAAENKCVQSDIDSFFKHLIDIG

[3] = biological target: T3, rVAR2 recombinant protein with the 3xFLAG-tag (eukaryotically expressed and purified) (Plasmodium falciparum, Possible post-translational modification (runs at about 115 kDa against 76 kDa predicted); not carried by the letters.); experiment: Western blot, 5H4 as primary antibody
T3 construct: Expressed in HEK293 or HEK293T cells; Predicted about 76 kDa, runs at about 115 kDa (possible post-translational modification); also called eukaryotically expressed and purified rVAR2 protein
T3 chain: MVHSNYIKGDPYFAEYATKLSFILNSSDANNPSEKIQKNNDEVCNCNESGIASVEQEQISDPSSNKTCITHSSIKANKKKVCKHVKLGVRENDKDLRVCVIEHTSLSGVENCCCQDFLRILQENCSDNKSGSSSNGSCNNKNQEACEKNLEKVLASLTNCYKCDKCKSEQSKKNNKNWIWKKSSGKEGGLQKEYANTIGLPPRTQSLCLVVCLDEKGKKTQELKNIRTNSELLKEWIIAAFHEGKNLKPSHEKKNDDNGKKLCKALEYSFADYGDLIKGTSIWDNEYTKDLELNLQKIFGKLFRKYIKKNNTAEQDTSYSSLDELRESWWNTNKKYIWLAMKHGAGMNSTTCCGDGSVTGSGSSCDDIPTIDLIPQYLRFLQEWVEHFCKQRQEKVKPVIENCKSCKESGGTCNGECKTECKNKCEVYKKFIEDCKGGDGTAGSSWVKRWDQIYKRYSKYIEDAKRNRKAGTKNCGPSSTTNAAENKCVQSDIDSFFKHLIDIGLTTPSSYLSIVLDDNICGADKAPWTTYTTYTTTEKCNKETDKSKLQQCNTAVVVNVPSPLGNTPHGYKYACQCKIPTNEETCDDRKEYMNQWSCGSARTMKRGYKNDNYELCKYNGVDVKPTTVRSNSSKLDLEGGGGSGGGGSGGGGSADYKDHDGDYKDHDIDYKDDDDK

[4] = biological target: T4, rVAR2 recombinant protein with a Strep-tag (prokaryotically expressed and purified) (Plasmodium falciparum); experiment: Western blot, 5H4 as primary antibody
T4 construct: Expressed in E. coli, about 74 kDa; also called prokaryotically expressed and purified rVAR2 protein; strep-tagged rVAR2 recombinant protein
T4 chain: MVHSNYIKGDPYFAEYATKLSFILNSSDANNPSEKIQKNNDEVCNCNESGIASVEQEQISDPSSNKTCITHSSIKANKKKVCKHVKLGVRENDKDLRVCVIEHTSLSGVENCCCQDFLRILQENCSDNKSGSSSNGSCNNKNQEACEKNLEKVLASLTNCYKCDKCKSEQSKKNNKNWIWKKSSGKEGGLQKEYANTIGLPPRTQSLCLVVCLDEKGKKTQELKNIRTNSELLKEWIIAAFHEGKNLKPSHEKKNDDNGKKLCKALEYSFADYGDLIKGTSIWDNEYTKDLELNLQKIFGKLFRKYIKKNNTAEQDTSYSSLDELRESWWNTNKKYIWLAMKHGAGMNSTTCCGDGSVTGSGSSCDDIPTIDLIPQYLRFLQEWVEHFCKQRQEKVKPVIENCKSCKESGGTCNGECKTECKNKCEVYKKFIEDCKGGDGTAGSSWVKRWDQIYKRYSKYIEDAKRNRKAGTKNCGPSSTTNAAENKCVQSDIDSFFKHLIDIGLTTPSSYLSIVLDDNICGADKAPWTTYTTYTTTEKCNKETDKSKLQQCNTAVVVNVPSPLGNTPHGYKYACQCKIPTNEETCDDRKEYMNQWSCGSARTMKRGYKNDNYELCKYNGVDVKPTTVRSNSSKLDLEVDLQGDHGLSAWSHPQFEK

[5] = biological target: T5, ID2a polypeptide with Strep-tag (Plasmodium falciparum); experiment: antigen-specific ELISA, antigen coated at 1 µg/ml
T5 construct: Expressed in E. coli, predicted about 15 kDa; also called ID2a antigen peptide
T5 chain: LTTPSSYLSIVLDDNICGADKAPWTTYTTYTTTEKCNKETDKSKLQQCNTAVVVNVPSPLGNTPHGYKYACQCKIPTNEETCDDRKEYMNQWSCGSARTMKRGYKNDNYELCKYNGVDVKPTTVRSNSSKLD

B1: anti-rVAR2 monoclonal antibody 5H4 (antibody, V domains shown)
VH: EVKLVESGGGLVKPGGSLKLSCAASGFTFSNYAMSWVRQSPERRLEWVAEISITGRYTYYPDTVTGRFTISRDNAKNTLYLEMSSLRSEDTAMYYCTREGYDYAPSWFAYWGQGTLVTVSA
VL: DVVMTQTPLSLPVSLGDQASISCRSGQTLVHRNGITYLEWYLQKPGQSPKLLIYKVSNRFSGVPDRFSGSGSGTDFTLKISRVEAEDLGIYYCFQGSHVPRTFGGGTKLEIK
notes: Murine IgG from a mouse B cell hybridoma, purified from hybridoma supernatant; isotype and constant regions are not; also called murine monoclonal antibody 5H4
B1: no binding (tested: antigen coated at 1 µg/ml) [1]; no binding (tested: antigen coated at 1 µg/ml) [2]; binds [3]. B1: binds [4]; binds [5].
